Assay results reported in article PMC7531186 (Journal of the American Chemical Society, 2020).
Read-outs that look alike come from different tables or passages of the source.

How the values were obtained:
SPOP ΔBACK^28–337 [1] = molecular target: T1, SPOP ΔBACK^28–337 (UniProt O43791 28-337); experiment: fluorescence polarisation
SPOP ΔBACK^28–337 [2] = molecular target: T1, SPOP ΔBACK^28–337; experiment: fluorescence polarisation; remark: listed apart in the source

T1 sequence (O43791 28-337, stated change not applied): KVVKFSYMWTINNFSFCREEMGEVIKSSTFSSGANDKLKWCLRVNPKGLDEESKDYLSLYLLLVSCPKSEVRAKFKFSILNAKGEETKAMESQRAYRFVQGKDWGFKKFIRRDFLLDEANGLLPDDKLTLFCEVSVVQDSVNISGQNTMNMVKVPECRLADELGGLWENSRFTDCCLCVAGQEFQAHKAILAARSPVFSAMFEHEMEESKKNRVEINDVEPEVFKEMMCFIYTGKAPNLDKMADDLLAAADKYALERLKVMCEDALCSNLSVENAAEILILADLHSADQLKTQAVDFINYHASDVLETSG

B1: rhodamine-labeled His-cDAXX^495–740 (domain or fragment, UniProt Q9UER7 495-740, looked up)
chain: SPMSSLQISNEKNLEPGKQISRSSGEQQNKGRIVSPSLLSEEPLAPSSIDAESNGEQPEELTLEEESPVSQLFELEIEALPLDTPSSVETDISSSRKQSEEPFTTVLENGAGMVSSTSFNGGVSPHNWGDSGPPCKKSRKEKKQTGSGPLGNSYVERQRSVHEKNGKKICTLPSPPSPLASLAPVADSSTRVDSPSHGLVTSSLCIPSPARLSQTPHSQPPRPGTCKTSVATQCDPEEIIVLSDSD
modifications: labeled with Rhodamine Red C2 maleimide
Kd (SPOP ΔBACK^28–337 [1]): 17 µM | Kd (SPOP ΔBACK^28–337 [2]): 10 µM
